From the supplement of paper PMC9170038

Tested on: MS2 coat protein
Experiment: apparent KD of MS2 coat protein; designed switch direction (-1 OFF switch, 1 ON switch): 1; higher = weaker reporter binding
Method in brief: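 Normalised cluster fluorescence was curve-fitted, and each design's median over clusters is its apparent KD. Before this, SNAP-549-labelled MS2 coat protein was titrated from 0.7 or 1.5 nM, doubling to 3 µM, over RNA switches transcribed on Illumina chips by stalled E. coli RNA polymerase. Titrations had no input, 200 uM small-molecule ligand, or an oligonucleotide input, and steps lasted 0.8–1.5 h (lowest) to 10–20 min (highest).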

[1] = input ligand: microRNA oligo, concentration not stated
[2] = Eterna round: R95, input ligand: FMN 200 uM
[3] = Eterna round: R95, input ligand: microRNA oligo, concentration not stated
[4] = Eterna round: R95, input ligand: none

Row | Sequence | apparent KD of MS2 coat protein (input ligand: FMN 200 uM) | apparent KD of MS2 coat protein [1] | apparent KD of MS2 coat protein (input ligand: none) | apparent KD of MS2 coat protein [2] | apparent KD of MS2 coat protein [3] | apparent KD of MS2 coat protein [4]
1 | GUUACAUGAGGAUCACCCAUGUAUGUGUGGGAGUAAGUGUCUUAGGAUAUCUGUUAUUUUAUUUAAGAGAAGGAAGAUUGUUGU [JMF's solution 39] (Eterna round: R96, puzzle: Same State NG 3) | 133 nM | 68.9 nM | 80.7 nM |  |  | 
2 | GUUCGUUUGAUAGGAUAUCGCUUAACAUGAGGAUCACCCAUGUUUACCACGCUGGUUUUUCGUACCGAGAAGGAUUCUGAUGAU [JL JR sub007 mod 1] (Eterna round: R96, puzzle: Same State NG 2) | 37.9 nM | 43.6 nM | 47.1 nM |  |  | 
3 | UAAAAGAAUUAAGGAUAUUGAAUACAUAUGUUUAACAUGAGGAUCACCCAUGUGGGUUGCGGUAUCGAGAAGGUAAAAUAAUAG [Mat - Same State NG 2 - JL mod - D6] (Eterna round: R96, puzzle: Same State NG 2) | 163 nM | 110 nM | 151 nM |  |  | 
4 | UAACAACAUAUAGAACAAGCGUGCUCGUCACAUGAGGAUCACCCAUGUCUAAGCGCUGUACCUACAUCCUCAGCGCC [Raononbeen] (puzzle: Sensor for hsa-mir-208a) |  |  |  | 105 nM | 29.2 nM | 96.4 nM
5 | UAAGUAUGUUGAGGAUAUUAUGUCAAGAGAGAUGACAUGAGGAUCACCCAUGUGUGAAGAGGAUUUAAGAAGGCAACAUACUUA [JR_SSNG2_Sub090] (Eterna round: R96, puzzle: Same State NG 2) | 39.9 nM | 47.7 nM | 66.7 nM |  |  | 
6 | UAAUUAAGUCAAGGAUAUCACGUCGUUUAGACGUGAGAAGGUGAUUAAUACAUGAGGAUCACCCAUGUAAUACAUGAAUAAUUA [SSNG1/11-B3] (Eterna round: R96, puzzle: Same State NG 1) | 51.3 nM | 59.5 nM | 64.5 nM |  |  | 
7 | UACAAUCUAUCUGAGGAUAUCAUGAAGAAAACAUGAGGAUCACCCAUGUGCAGGAUAACUGCAAAUGAGAAGGCAGAUAGAUUGU [Mat - Same State 2 - Mod - D5] (puzzle: Same State 2) |  |  |  | 8.19 nM | 18.5 nM | 18 nM
8 | UACAAUCUAUCUGAGGAUAUCAUGAUAAUAACAUGAGGAUCACCCAUGUGCAGGAAAACUGCAUAUGAGAAGGCAGAUAGAUUGA [Mat - Same State 2 - Mod - D13] (puzzle: Same State 2) |  |  |  | 89.9 nM | 93.1 nM | 417 nM
9 | UACUAUCUAUCUCAGGAUAUCAUGUCAAAGACAUGAGGAUCACCCAUGUACCAGGAAACUGGUUAUGAGAAGGGAGAUAGAUAGA [Mat - Same State 2 - Mod - D39] (puzzle: Same State 2) |  |  |  | 98.2 nM | 45.1 nM | 234 nM
10 | UAGAAACAUGAGGAUCACCCAUGUGUCAAAGACAUAGGAUAUCGUAACCGGCGCCGAAUACGAGAAGGGUGGUAAA [Arares] (puzzle: Same State 1) |  |  |  | 183 nM | 74.9 nM | 166 nM
11 | UAGAAACAUGAGGAUCACCCAUGUGUCAAAGACAUAGGAUAUCGUGACCGGCGCCGGACACGAGAAGGGUGGUAAA [Quingees] (puzzle: Same State 1) |  |  |  | 387 nM | 209 nM | 386 nM
12 | UAGAGAGGAAGCGAGGAUAUCGUGGGAGGAACAUGAGGAUCACCCAUGUGUGAUGUUGAGAGGGACGAGAAGGCGCGGGAAAUUA [JR_SS2_Sub080] (puzzle: Same State 2) |  |  |  | 176 nM | 160 nM | 175 nM
13 | UAGCUUGUGGUAGGAUAUCUAGGAUAUGGGAAGAGCUAAGCUUGGAAGUCACUUCACCCAGAAGGAGAGAAGGACCAGAGGCUU [pwkr ssNG2 2FMN + F9.6] (Eterna round: R96, puzzle: Same State NG 2) | 218 nM | 73.6 nM | 262 nM |  |  | 
14 | UAGUGCGUUAGAGGAUAUUCAAGGUGAAAAAAAAAUACAUGAGGAUCACCCAUGUAAAAACAUGAGGAGAAGGCUGAUGUGCUA [Omei SS(NG)2 A] (Eterna round: R96, puzzle: Same State NG 2) |  | 38 nM |  |  |  | 
15 | UAGUGCGUUAGAGGAUAUUCUAAAUAAAAUAAUAAGACAUGAGGAUCACCCAUGUAUGUACAUGGGAAGAAGGCUGAUGUGCUA [Omei SS(NG)2 Bv2] (Eterna round: R96, puzzle: Same State NG 2) |  | 342 nM |  |  |  | 
16 | UAUCCAUAGAUAGGAUAUCAGUAUACAUGAGGAUCACCCAUGUUCUAUUUGGUUUUAAUUUAUUCUGAGAAGGAUCUUGAUGAA [SameState NG2 #1] (Eterna round: R96, puzzle: Same State NG 2) | 13.8 nM | 16.4 nM | 17.6 nM |  |  | 
17 | UAUCCAUAGAUAGGAUAUUAGAGAACAUGAGGAUCACCCAUGUUUGGCUUGGUUUUAAGCUAAUCUGAGAAGGAUCUUGAUGAA [SameState NG2 #8] (Eterna round: R96, puzzle: Same State NG 2) | 85.5 nM | 185 nM | 119 nM |  |  | 
18 | UAUCCAUAGAUAGGAUAUUAGUGAACAUGAGGAUCACCCAUGUUUUGCUUGGUUUUAAGCUAAUCUGAGAAGGAUCUUGAUGAA [SameState NG2 #6] (Eterna round: R96, puzzle: Same State NG 2) | 31.5 nM | 33.3 nM | 41.6 nM |  |  | 
19 | UCAAGCGAGAGGCUCGUCUUAUGUUUGGUACAUGAGGAUCACCCAUGUUAGGGACGAUUUAGUUAGAUGGAAUUUUG [JR_SHM208A_Sub035] (puzzle: Sensor for hsa-mir-208a) |  |  |  | 48.5 nM | 269 nM | 65.7 nM
20 | UCAGUCAUGUAAGGAUAUGCAGCCGUUUCGGCUGCAGAAGGUACUAUAAUUACAUGAGGAUCACCCAUGUUAUAAAAUUUAUAU [JL SSNG1 1.25] (Eterna round: R96, puzzle: Same State NG 1) |  | 38.8 nM |  |  |  | 
21 | UCCGCUAUCUAGAAGGAUAUGCGUAUAUAAACAUGAGGAUCACCCAUGUACCGGCGAAAACCGGUGCAGAAGGUUUAGCUAGUGA [Rediin] (Eterna round: R96, puzzle: Same State 2) | 69.8 nM | 298 nM | 359 nM |  |  | 
22 | UCCGCUAUCUAGAAGGAUAUGCGUAUAUAAACAUGAGGAUCACCCAUGUACCGGCGAAAACCGGUGCAGAAGGUUUAGCUAGUGA [Rediin] (puzzle: Same State 2) |  |  |  | 42.3 nM | 273 nM | 502 nM
23 | UCUUGGUUUUUGCUCGUUUUUUGUGUUGAACAUGAGGAUCACCCAUGUAUUGUACAAUCCAGUUUGAUAAUGGUCCA [Mod of one of JR's submissions] (puzzle: Sensor for hsa-mir-208a) |  |  |  | 80.2 nM | 77.6 nM | 102 nM
24 | UCUUGGUUUUUGCUCGUUUUUUGUGUUGAACAUGAGGAUCACCCAUGUAUUGUACAGUCCGGUUUAGUGAUGGUCCG [JMF 58] (puzzle: Sensor for hsa-mir-208a) |  |  |  | 40.2 nM | 32.6 nM | 45 nM
